Assays:
p53 AD1 13-37 [1] = biological target: T1, p53 AD1 13-37 (Homo sapiens, UniProt P04637); assay: NMR HSQC titration, global fit raw
p53 AD1 13-37 [2] = biological target: T1, p53 AD1 13-37; assay: NMR HSQC titration, local fit SVD
p53 AD1 13-37 [3] = biological target: T1, p53 AD1 13-37; assay: NMR HSQC titration, local fit raw
p53 AD1 13-37 [4] = biological target: T1, p53 AD1 13-37; assay: NMR HSQC titration, local fit SVD; remark: listed apart in the source
p53 AD1 13-37 [5] = biological target: T1, p53 AD1 13-37; assay: NMR HSQC titration, global fit SVD
p53 AD1 13-37 [6] = biological target: T1, p53 AD1 13-37; assay: NMR HSQC titration, local fit raw with concentration correction
p53 AD1 13-37 [7] = biological target: T1, p53 AD1 13-37; assay: NMR HSQC titration, local fit raw; remark: listed apart in the source

T1 sequence (P04637 13-37): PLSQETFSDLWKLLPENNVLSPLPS

Kd (p53 AD1 13-37 [1]): 180 µM
Kd (p53 AD1 13-37 [2]): 225 µM
Kd (p53 AD1 13-37 [3]): 27 µM
Kd (p53 AD1 13-37 [4]): 33 µM
Kd (p53 AD1 13-37 [5]): 32 µM
Kd (p53 AD1 13-37 [6]): 345 µM
Kd (p53 AD1 13-37 [7]): 448 µM
B1: CBP TAZ2 1764-1855 (protein)
chain: SPQESRRLSIQRCIQSLVHACQCRNANCSLPSCQKMKRVVQHTKGCKRKTNGGCPVCKQLIALCCYHAKHCQENKCPVPFCLNIKHKLRQQQ
